Measurements reported in article PMC6297230, “Structural basis of meiotic telomere attachment to the nuclear envelope by MAJIN-TERB2-TERB1” (Nature Communications, 2018).

Experiments:
Experiment in all cases: EMSA
Settings in all cases: apparent, Hill fit; EMSA: 20 mM Tris pH 8.0, 250 mM KCl, 1 h at 4 °C, 3% glycerol, 0.5% agarose in 0.5x TBE; 25 nM FAM-DNA for Kd (protein as oligomer), 0.3 uM DNA for display
[1] = biological target: MAJIN Core;TERB2 C (human;human) (UniProt Q3KP22+Q8NHR7)
[2] = biological target: MAJIN dTM;TERB2 C-Tr (human;human) (UniProt Q3KP22+Q8NHR7)
[3] = biological target: MAJIN dTM;TERB2 C (human;human) (UniProt Q3KP22+Q8NHR7)
[4] = biological target: MAJIN Core;TERB2 full length;TERB1 TRFB (human;human;human) (UniProt Q3KP22+Q8NHR7+Q8NA31)
Chain of MAJIN Core;TERB2 full length;TERB1 TRFB (human;human;human) (Q3KP22 whole entry, chain 1 of 3): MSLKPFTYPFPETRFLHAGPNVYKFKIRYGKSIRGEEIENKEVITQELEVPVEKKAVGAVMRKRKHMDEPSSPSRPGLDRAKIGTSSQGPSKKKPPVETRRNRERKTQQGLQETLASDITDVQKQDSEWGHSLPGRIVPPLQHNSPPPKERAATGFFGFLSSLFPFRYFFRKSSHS
Chain of MAJIN Core;TERB2 full length;TERB1 TRFB (human;human;human) (Q8NHR7 whole entry, chain 2 of 3): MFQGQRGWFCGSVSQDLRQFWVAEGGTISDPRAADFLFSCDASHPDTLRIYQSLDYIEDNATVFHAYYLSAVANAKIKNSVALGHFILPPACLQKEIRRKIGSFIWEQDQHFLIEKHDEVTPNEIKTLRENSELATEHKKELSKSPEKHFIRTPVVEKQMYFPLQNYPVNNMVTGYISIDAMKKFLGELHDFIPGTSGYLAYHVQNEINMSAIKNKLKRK
Chain of MAJIN Core;TERB2 full length;TERB1 TRFB (human;human;human) (Q8NA31 561-658, chain 3 of 3): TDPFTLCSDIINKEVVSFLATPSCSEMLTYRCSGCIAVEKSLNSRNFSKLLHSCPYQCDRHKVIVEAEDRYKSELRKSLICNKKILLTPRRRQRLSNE

Chain of MAJIN Core;TERB2 C (human;human) (Q3KP22 whole entry, chain 1 of 2): as the sequence (Q3KP22 whole entry, chain 1 of 3) above
Chain of MAJIN Core;TERB2 C (human;human) (Q8NHR7 168-220, chain 2 of 2): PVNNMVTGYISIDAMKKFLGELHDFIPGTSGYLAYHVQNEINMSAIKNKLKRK
Chain of MAJIN dTM;TERB2 C (human;human) (Q3KP22 whole entry, chain 1 of 2): as the sequence (Q3KP22 whole entry, chain 1 of 3) above
Chain of MAJIN dTM;TERB2 C (human;human) (Q8NHR7 168-220, chain 2 of 2): as the sequence (Q8NHR7 168-220, chain 2 of 2) above
Chain of MAJIN dTM;TERB2 C-Tr (human;human) (Q3KP22 whole entry, chain 1 of 2): as the sequence (Q3KP22 whole entry, chain 1 of 3) above
Chain of MAJIN dTM;TERB2 C-Tr (human;human) (Q8NHR7 168-207, chain 2 of 2): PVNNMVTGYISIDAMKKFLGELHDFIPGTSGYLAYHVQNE

Q: “AATTCTCATTTTACTTACCGGACGCTATTAGCAGTGGCAGATTGTACTGAGAGTGCACCATATGCGGTGTGAAATACCGCACAGATGCGT [Random ssDNA (90 nt)]” was tested. Which Kd [1] did it give?
A: 0.9 µM

Q: Which Kd [1] does the source give for “TTAGGGTTAGGGTTAGGGTTAGGGTTAGGGTTAGGGTTAGGGTTAGGGTTAGGGCGACGACCCTAACCCTAACCCTAACCCTAACCCTAACCCTAACCCTAACCCTAACCCTAA [Telomeric hairpin DNA (54 bp)]” here?
A: 0.61 µM

Q: Which results are given for “TTCCAGGGTTCCATGGAGATAAAGGTCAATAAATTAGAGTTAGAACTAGAAAGTGCCAAACAGAAATTTGGAGAAATCACAGACACCTATCAGAAAGAAATTGAGGACAAAAAGATATCAGAATAATAACCATGGATATCGAATT (double strand) [FAM random dsDNA (145 bp)]”?
A: Kd [1]: 0.55 µM; Kd [2]: 0.2 µM; Kd [3]: 0.12 µM; Kd [4]: 0.46 µM

Q: Which Kd [1] does the source give for “TTTTTTTTTTTTTTTTTTTTTTTTTTTTTTTTTTTTTTTTTTTTTTTTTTTTTTTTTTTTTTTTTTTTTTTTTTTTTTTTTTTTTTTTTTTTTTTTTTTT [Poly(dT) (100 nt)]” here?
A: 0.51 µM
